Laboratory results: patent US9926355 (NEW YORK UNIVERSITY, dated 2018)

What was measured:
[1] = biological target: T1, ligand-binding domain of human FGFR1c (D142 to R365) (human, UniProt P11362 142-365); experiment: SPR; immobilized FGF21, FGFR1c ligand-binding domain in solution
T1 construct: range 142-365
T1 sequence (looked up): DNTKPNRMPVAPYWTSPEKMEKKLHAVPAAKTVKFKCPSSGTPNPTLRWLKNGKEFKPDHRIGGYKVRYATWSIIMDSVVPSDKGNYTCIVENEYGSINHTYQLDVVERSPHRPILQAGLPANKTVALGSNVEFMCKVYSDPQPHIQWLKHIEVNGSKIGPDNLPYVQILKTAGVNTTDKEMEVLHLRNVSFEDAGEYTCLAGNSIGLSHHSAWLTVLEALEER
Source text: (§1) FIGS. 10A-10D show overlays of SPR sensorgrams illustrating binding of FGFR1c to FGF2 (FIG. 10A), FGF19 (FIG. 10B), FGF21 (FIG. 10C), and FGF23 (FIG. 10D), and fitted saturation binding curves. Increasing concentrations of FGFR1c ligand-binding domain were passed over a biosensor chip containing immobilized FGF2, FGF19, FGF21, or FGF23. […] Increasing concentrations of αKlotho-FGFR1c complex were passed over a biosensor chip containing immobilized FGF23. […] FGF2^3C-tail was immobilized on a biosensor chip and increasing concentrations of FGFR1c ligand-binding domain were passed over the chip. Dissociation constants (K_Ds) given in FIGS. 10A-10E were derived from the saturation binding curves.
(§2) Example 2—Analysis of FGF-Heparin and FGF-FGFR-α/Klotho Interactions by Surface Plasmon Resonance Spectroscopy Surface plasmon resonance (SPR) experiments were performed on a Biacore 2000 instrument (Biacore AB), and the interactions were studied at 25° C. in HBS-EP buffer (10 mM HEPES-NaOH, pH 7.4, 150 mM NaCl, 3 mM EDTA, 0.005% (v/v) polysorbate 20). To study endocrine FGF-heparin interactions, a heparin chip was prepared by immobilizing biotinylated heparin (Sigma-Aldrich) on flow channels of a research-grade streptavidin chip (Biacore AB). The coupling density was ~5 fmol mm^-2 of flow channel. […]

[2] = biological target: T1, ligand-binding domain of human FGFR1c …; experiment: SPR; FGF23 immobilized, increasing concentrations of FGFR1c ligand-binding domain; KD only in the figure
Source text: as §1, §2

[3] = biological target: T1, ligand-binding domain of human FGFR1c …; experiment: SPR; FGF23 C-tail peptide immobilized, increasing concentrations of FGFR1c ligand-binding domain
Source text: as §1, §2

B1: N-terminally hexahistidine-tagged, mature form of human FGF21 (H29 to S209) (ligand)
chain: HPIPDSSPLLQFGGQVRQRYLYTDDAQQTEAHLEIREDGTVGGAADQSPESLLQLKALKPGVIQILGVKTSRFLCQRPDGALYGSLHFDPEACSFRELLLEDGYNVYQSEAHGLPLHLPGNKSPHRDPAPRGPARFLPLPGLPPALPEPPGILAPQPPDVGSSDPLSMVGPSQGRSPSYAS
notes: also called native FGF21; not shown: N-terminal hexahistidine tag
binding result [1]: binds

B2: N-terminally hexahistidine-tagged, mature form of human FGF23 (Y25 to I251), R176Q/R179Q (ligand)
chain: YPNASPLLGSSWGGLIHLYTATARNSYHLQIHKNGHVDGAPHQTIYSALMIRSEDAGFVVITGVMSRRYLCMDFRGNIFGSHYFDPENCRFQHQTLENGYDVYHSPQYHFLVSLGRAKRAFLPGMNPPPYSQFLSRRNEIPLIHFNTPIPRQHTQSAEDDSERDPLNVLKPRARMTPAPASCSQELPSAEDNSPMASDPLGVVRGGRVNTHAGGTGPEGCRPFAKFI
notes: also called native FGF23; wild-type FGF23; not shown: N-terminal hexahistidine tag
binding result [2]: binds

B3: N-terminally hexahistidine-tagged C-terminal tail peptide of FGF23 (S180 to I251) (peptide)
peptide: SAEDDSERDPLNVLKPRARMTPAPASCSQELPSAEDNSPMASDPLGVVRGGRVNTHAGGTGPEGCRPFAKFI
notes: also called FGF23^C-tail; not shown: N-terminal hexahistidine tag
binding result [3]: no binding
